Experimental data: US20040147006

Columns and labels:
[1] = test system: phosphorylated T-ag peptide of SEQ ID NO: 15 used in the ATPase assay
[2] = test system: unphosphorylated peptide T-2 13 (SEQ ID NO: 3)
[3] = test system: phosphorylated peptide E1-P1 25 (SEQ ID NO: 18)
[4] = test system: unphosphorylated peptide E1-P2 25 (SEQ ID NO: 2)

Substance: SV40 T-antigen (T-ag)
- ATPase of T-ag (32P-ATP hydrolysis, TLC autoradiography) [1]: the phosphorylated peptide did not modulate the ATPase of T-ag activity
- ATPase of T-ag (32P-ATP hydrolysis, TLC autoradiography) [2]: this peptide inhibited the ATPase of T-ag
- ATPase of T-ag (32P-ATP hydrolysis, TLC autoradiography) [3]: had no effect
- ATPase of T-ag (32P-ATP hydrolysis, TLC autoradiography) [4]: blocked the degradation of ATP by T-ag
